Test results reported in US20200206304A1, “METHODS AND COMPOSITIONS FOR EFFICIENT DELIVERY THROUGH MULTIPLE BIO BARRIERS” (Cedars-Sinai Medical Center, priority 2017, published 2020).
Like-named read-outs stand apart in the source and are kept apart here.

Tests used:
[1] = Zeta potential measurements (Zetasizer Nano ZS90); assay type: physicochemical; details: in PBS; voltage 150 mV
Protocol: Zeta Potential Measurements: Synthesized conjugates were characterized with respect to their ζ potential using a Zetasizer Nano ZS90 (Malvern Instruments, Malvern, UK). Ten microliter aliquots of nanoconjugate samples were diluted in 0.99 mL PBS, and the voltage applied was 150 mV. Data represent the mean of three measurements±their standard deviation.

[2] = Dynamic light scattering, hydrodynamic diameter and PDI; assay type: physicochemical; details: DLS in PBS, conjugates without attached rhodamine
Protocol: Dynamic Light Scattering: Synthesized conjugates were characterized using a Zetasizer Nano ZS90 (Malvern Instruments, Malvern, UK). Ten microliter aliquots of nanoconjugate samples were diluted in 0.99 mL PBS and were measured 3 times using a clear cuvette. Data represent the mean of three measurements and polydispersity index.

brain parenchyma = system: brain parenchyma
Protocol: To determine how nanoconjugate-associated fluorescence relates to the anatomy of the vasculature, the distance of each analyzed ROI was manually measured from the nearest blood vessel wall (using line tool in FIJI). For tumor bearing mice, 5 images per tumor tissue and 5 per brain tissue were analyzed for each mouse. Intensity values were then plotted against the location of the blood vessel wall and summarized in scatterplots (e.g., FIG. 14B).
Drug concentrations are listed with regard to total nanoconjugate content systemically injected. […] Referring to FIG. 14B, fluorescence measurements were obtained from 10 μm^2-sized regions of interest (ROI) that were randomly overlaid on regions devoid of vasculature shown as yellow squares on photograph 1 of FIG. 14A. Intensity measurements and positions were then obtained for each ROI and plotted against the location of the nearest blood vessel wall. FIG. 14C is set of charts: chart 1—Cortex; chart 2—Midbrain and chart 3 Hippocampus, illustrating average nanoconjugate fluorescence in the brain parenchyma measured following injections at four different drug concentrations. In this figure, fluorescence is shown as relative fluorescence, which is the measured nanoconjugate fluorescence after subtraction of autofluorescence imaged from PBS injected animals using similar acquisition settings.
FIG. 14B explores this relationship in a plot from all of the measurements (for each condition: 4 mice, 3-4 sections with 20 random measurements each). All fluorescence intensity measurements were conducted with 10 μm^2-sized regions of interest placed outside of tomato-lectin stained blood vessels (ROI as in Photograph 1 of FIG. 14A); the positions of these ROIs were then measured against the location of the nearest blood vessel wall to produce the scatterplot in FIG. 14B.
The resulting data were used as a metric to examine how well the mini nanodrug was able to travel from the vessels into the surrounding parenchyma and encounter brain cells. […] Nanoconjugate diffused fluorescence intensity vs. ‘distance from vasculature’ measurements in brain parenchyma of mice injected with nanoconjugates at a dose of 0.274 μmol/Kg. Fluorescence measurements were obtained from […] regions of interest (ROI) that were randomly overlaid on regions devoid of vasculature (shown by yellow squares in FIG. 22A). Intensity measurements and positions were then obtained for each ROI and plotted against the location of the nearest blood vessel wall.

brain cells = details: cortex
Protocol: For the particulate fluorescence analysis, images were converted to binary images, and then 5 ROIs 20*20 μm^2 were drawn per image. The area of each particle on the ROI was measured using the Image) particle analysis tool, where each particle was measured separately. Sizes were then summarized, sorted, and further analyzed using Minitab18 software (Minitab, Inc, State College, Pa., USA). Particulate areas observed between different conditions were compared via a one-way ANOVA combined with post-hoc Tukey tests to test differences between each experimental group.
A more reliable method to separate the particulate from the cellular fluorescence was reasoned to be by adjusting the levels of the image and converting it to a binary image, allowing the detection of only particulates eliminating interference of the diffused background. FIGS. 29A-29D illustrate intracellular fluorescence of mini nanodrugs.
Each ROI was converted to binary (black and white) image and the area and number of particles were quantified. 3 images per brain area were tested for 3 mice per group.
The particle content (example of ROI in FIG. 29A) then was measured. The average size of the particulate fluorescence is a proxy to estimate the intracellular load of fluorescent nanoconjugates following their injections. An example of such an analysis is shown in FIG. 29A: the yellow squares indicate regions of interest that were used to quantify particulate fluorescence. FIGS. 29B-29C summarize the average size of the intracellular fluorescence particles in the cortex ([…]), midbrain (FIG. 29C), and the hippocampus (FIG. 29C).

[3] = system: blood-brain barrier (BBB); details: dose 8×
Protocol: AD-Mouse models: 6-8 month old […] (B6.Cg-Tg (APPswe/PS1ΔE9) 85Dbo/J hemizygous) mice were obtained from Jackson Laboratories. Mouse maintenance and experimental procedures followed the guidelines established by the Cedars Sinai Institutional Animal Care and Use Committee (IACUC Protocol #7416). Three to four mice of each sex were used for each experiment. Nanoconjugates were dissolved freshly in PBS (pH 7.4) prior to each experiment and injected intravenously (i.v.) into the lateral tail vein. […] Mice were anesthetized with isoflurane beforehand and their tails were briefly warmed to facilitate injections. The drug injection volume was kept constant at 150 μL. After each injection, mice were promptly returned to their cages. Brains were collected and preserved in OTC for immunostaining.
The brains were harvested and a 14 μm thick slices which were fixed and stained with DAPI to envision the nuclei
A comparison with normal brain was beneficial for understanding of the development of Alzheimer's disease.

[4] = system: LRP-1 transcytosis pathway; details: 70-fold molar excess of P/LLL (40%)
[5] = not given; remark: listed apart in the source
Brain (other hemisphere) = details: 2 h, PBS background subtracted
[6] = comparison, Israel et al., 2019; cited from earlier work
[7] = system: blood-brain barrier (BBB); details: Israel et al., 2019; cited from earlier work

PMLA/LLL/AP2/rhodamine [P/LLL/AP2]
ζ potential [1]: −11.6 mV | Hydrodynamic diameter (volume mode) [2]: 4.45 nm | PDI [2]: (0.39) | PDI ([2]; listed as P/LLL/AP-2): 0.39 | fluorescence intensity decrease (slope), linear regression vs distance from vessel (brain parenchyma; 0.274 μmol/kg, 120 min): −0.272±0.07 | γ-intercept of linear regression, fluorescence vs distance (brain parenchyma; 0.274 μmol/kg, 120 min): 17.49±0.8 | γ-intercept of linear regression, fluorescence vs distance (brain parenchyma; 0.068 mol/kg, 120 min): 6.342±0.34 | cortex Y intercepts of fluorescence vs distance curves (exponential fits) (brain parenchyma; cortex, 0.274 μmol/Kg): 14.7 | average area per particle (brain cells): 0.42±0.72 μm^2 | fluorescence intensity in AD brain [3]: 10 units | serum concentration at 120 minutes (0.068 μmol/kg injection): 1.15e+08 µM | serum drug concentration at 120 minutes post injection (0.068 μmol/kg injection): 115 µM | serum half-life (i.v. 0.068 μmol/kg, single exponential decay fit): 1.28 h | competition by unlabeled P/LLL (40%) [4]: did not exhibit competition | estimated parenchyma concentration ([5]; cortex, 120 min, 0.068 μmol/kg injection): 0.049 ± 0.001 µmol/mL | percentage of free serum drug detected in the brain ([5]; within 120 minutes after i.v. administration): ≥ 40% | Brain (other hemisphere) fluorescence (Brain (other hemisphere); dose 1X): 2.1 | Brain (other hemisphere) fluorescence (Brain (other hemisphere); dose 4X): 9.4 | half-life in blood [6]: 1.28 h | half-life of first decline in brain parenchyma [7]: > 2 h | time independent plateau in parenchyma [7]: > 240 min
